Data taken from patent US20020147999A1.

How the values were obtained:
Test in all cases: cell-based or functional assay
[1] = biological target: p-NF-H (phosphorylated neurofilament protein of high molecular weight), mouse, endogenous in Neuro-2a cells (mouse) (UniProt P19246)
[2] = biological target: p-tau (phosphorylated microtubule-associated protein tau), mouse, endogenous in Neuro-2a cells and mouse brain (mouse) (UniProt P10637)
[3] = biological target: apoE cleavage enzyme (chymotrypsin-like serine protease; in mouse brain lysate or roughly/partially purified)

p-NF-H (phosphorylated neurofilament protein of high molecular weight), mouse, endogenous in Neuro-2a cells (mouse), sequence (P19246 whole entry): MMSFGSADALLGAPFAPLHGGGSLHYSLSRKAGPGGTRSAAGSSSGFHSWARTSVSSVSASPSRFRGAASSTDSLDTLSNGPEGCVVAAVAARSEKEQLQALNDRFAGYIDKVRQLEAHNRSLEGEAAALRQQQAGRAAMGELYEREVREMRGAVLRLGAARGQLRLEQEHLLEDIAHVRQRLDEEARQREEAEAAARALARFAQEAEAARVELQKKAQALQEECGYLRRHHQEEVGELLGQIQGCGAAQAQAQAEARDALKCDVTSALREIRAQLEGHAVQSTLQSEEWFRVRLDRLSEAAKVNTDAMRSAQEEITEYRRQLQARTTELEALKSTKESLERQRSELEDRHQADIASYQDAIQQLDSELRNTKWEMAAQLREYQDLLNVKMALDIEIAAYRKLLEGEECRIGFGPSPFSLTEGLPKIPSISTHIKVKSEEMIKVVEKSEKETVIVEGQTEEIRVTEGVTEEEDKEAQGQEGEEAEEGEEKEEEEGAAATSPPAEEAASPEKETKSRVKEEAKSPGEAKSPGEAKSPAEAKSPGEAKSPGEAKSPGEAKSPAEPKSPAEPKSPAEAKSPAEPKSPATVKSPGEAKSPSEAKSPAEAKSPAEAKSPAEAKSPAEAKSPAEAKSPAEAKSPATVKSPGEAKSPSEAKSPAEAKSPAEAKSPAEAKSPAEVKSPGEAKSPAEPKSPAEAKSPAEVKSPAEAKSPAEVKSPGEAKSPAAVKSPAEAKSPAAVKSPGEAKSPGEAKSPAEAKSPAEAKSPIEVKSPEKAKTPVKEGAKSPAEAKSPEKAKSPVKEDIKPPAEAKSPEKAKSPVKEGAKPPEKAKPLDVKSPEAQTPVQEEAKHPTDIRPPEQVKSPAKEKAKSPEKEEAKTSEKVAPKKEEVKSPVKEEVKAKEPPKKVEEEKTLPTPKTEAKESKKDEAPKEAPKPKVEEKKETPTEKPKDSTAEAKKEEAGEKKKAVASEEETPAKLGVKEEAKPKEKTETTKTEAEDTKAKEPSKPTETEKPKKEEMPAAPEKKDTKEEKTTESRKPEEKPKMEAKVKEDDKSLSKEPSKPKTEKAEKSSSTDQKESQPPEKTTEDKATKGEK
p-tau (phosphorylated microtubule-associated protein tau), mouse, endogenous in Neuro-2a cells and mouse brain (mouse), sequence (P10637 other isoform, or with tags, fused parts or gaps limits assumed): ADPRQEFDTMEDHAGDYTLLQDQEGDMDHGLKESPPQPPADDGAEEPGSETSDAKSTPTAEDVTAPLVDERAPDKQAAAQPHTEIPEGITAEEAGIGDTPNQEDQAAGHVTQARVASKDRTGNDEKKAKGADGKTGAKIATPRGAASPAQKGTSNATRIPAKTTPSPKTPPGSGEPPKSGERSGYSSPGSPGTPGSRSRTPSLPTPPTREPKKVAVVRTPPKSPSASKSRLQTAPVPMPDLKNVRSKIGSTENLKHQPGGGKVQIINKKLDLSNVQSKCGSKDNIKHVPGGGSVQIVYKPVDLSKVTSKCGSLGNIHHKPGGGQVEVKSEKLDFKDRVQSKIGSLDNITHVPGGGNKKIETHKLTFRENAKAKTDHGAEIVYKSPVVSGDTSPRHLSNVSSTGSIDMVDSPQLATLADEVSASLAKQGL

Row | Substance | transfected cells displaying the intracellular filamentous inclusions [1] [%] | transfected cells displaying the intracellular filamentous inclusions [2] [%] | inhibition of apoE cleavage enzyme activity (chromogenic assay, 1 mM Ala-Ala-Pro-Phe-p-nitroanilide; 7 µM apoE4) [3] [%]
1 | apoE3(Δ272-299), expressed in transfected cells (pFLAG-CMV-3 vector, secretory pathway, N-terminal FLAG) (from UniProt P02649 19-289) | 32 | 32 | –
2 | purified human apoE4 (full-length) (from UniProt P02649 19-317) | – | – | 89
3 | apoE4(Δ272-299), expressed in transfected cells (pFLAG-CMV-3 vector, secretory pathway, N-terminal FLAG) (from UniProt P02649 19-289) | 78 | 78 | –
